Here are results for one variant from article PMC8115288.

B1: GST-CTD (C-terminal domain of HIV-1 integrase, aa 201-288) [HIV-1 His6-SUMO-INI1_(183-304) [not stated] (parent)
chain 1: VDIIATDIQTKELQKQITKIQNFRVYYRDSRNPLWKGPAKLLWKGEGAVVIQDNSDIKVVPRRKAKIIRDYGKQMAGDDCVASRQDED
chain 2: PEVLVPIRLDMEIDGQKLRDAFTWNMNEKLMTPEMFSEILCDDLDLNPLTFVPAIASAIRQQIESYPTDSILEDQSDQRVIIKLNIHVGNISLVDQFEWDMSEKENSPEKFALKLCSELGLG

The variants in the experiment derive from B1. Nature of the experiment: Alpha assay. The conditions noted are these: with His6-SUMO-INI1_(183-304); low salt conditions; parent: 100; read off a plot.
Regarding chain 1 R28A, the percent of parent is 8 % of WT.
